Results on eight molecules are retold here after patent publication US20240158494A1 (Biogen, published 2024).

The target in assay [1] is T1, human transferrin receptor 1 (TfR1), full length, expressed on cells (human, UniProt P02786 1-760).
T1 construct: also called human TfR1; huTfR
The experiment in a line: FACS on Ba/F3 cells, Fab supernatant.

For assay [2], the target named is T2, cynomolgus monkey transferrin receptor 1 (TfR1), full length, expressed on cells (cynomolgus monkey, UniProt Q5RDH6 1-760 (Pongo abelii entry)).
T2 construct: also called cyno TfR1; cyTfR
Nature of the assay: FACS on Ba/F3 cells, Fab supernatant.

B1: TfR1 ANTIBODY-A HC-H0 hIgG1 Fab′(1C)/LC-L0 hKappa (Fab, V domains shown)
VH: EVQLVESGGGLVQPGGSLRLSCAASGIDFSSSGYMAWVRQAPGKGLEWVGAIYTYSSNTYYAASVKGRFTISRDDSKNSLYLQMNSLKTEDTAVYYCARGTYGYTGYTYTMGYFSLWGQGTLVTVSS
VL: DIQMTQSPSTLSASVGDRVTITCQASQNINSYLAWYQQKPGKAPKLLIYRASSLESGVPSRFSGSGSGTEFTLTISSLQPDDFATYYCQSYYYSGSSNYNAFGGGTKVEIKR
notes: also called ANTIBODY-A H0/L0
In the case of B1, the results for the EC50 in assay [1] and in assay [2] were 18 nM and greater than 85 nM, respectively.

B2: TfR1 ANTIBODY-A HC-H1 hIgG1 Fab′(1C)/LC-L1 hKappa (Fab, V domains shown)
VH: QSLVESGGGLVQPGGSLRLSCAASGIDFSSSGYMAWVRQAPGKGLEWVGAIYTYSSNTYYAASVKGRFTISRDDSKNSLYLQMNSLKTEDTAVYYCARGTYGYTGYTYTMGYFSLWGQGTLVTVSS
VL: DIQMTQSPSTLSASVGDRVTITCQASQNINSYLAWYQQKPGKAPKLLIYRASTLASGVPSRFSGSGSGTEFTLTISSLQPDDFATYYCQSYYYSGSSNYNAFGGGTKVEIKR
notes: also called ANTIBODY-A H1/L1
Regarding B2, the concentration for a half-maximal effect (EC50) in assay [1] was roughly 30 nM; in assay [2] it was greater than 162 nM.

B3: TfR1 ANTIBODY-A HC-H0 hIgG1 Fab′(1C)/LC-L2 hKappa (Fab, V domains shown)
VH: EVQLVESGGGLVQPGGSLRLSCAASGIDFSSSGYMAWVRQAPGKGLEWVGAIYTYSSNTYYAASVKGRFTISRDDSKNSLYLQMNSLKTEDTAVYYCARGTYGYTGYTYTMGYFSLWGQGTLVTVSS
VL: ELDMTQSPSTLSASVGDRVTITCQASQNINSYLAWYQQKPGKAPKLLIYRASTLASGVPSRFSGSGSGTEFTLTISSLQPDDFATYYCQSYYYSGSSNYNAFGGGTKVEIKR
notes: also called ANTIBODY-A H0/L2
Take B3: in assay [1], the concentration giving a half-maximal response (EC50) is greater than 70 nM.

B4: TfR1 ANTIBODY-A HC-H2 hIgG1 Fab′(1C)/LC-L1 hKappa (Fab, V domains shown)
VH: QSLVESGGGLVQPGGSLRLSCAASGIDFSSSGYMAWVRQAPGKGLEWVGAIYTYSSNTYYAASVKGRFTISKTSSTTVYLQMNSLKTEDTAVYYCARGTYGYTGYTYTMGYFSLWGQGTLVTVSS
VL: DIQMTQSPSTLSASVGDRVTITCQASQNINSYLAWYQQKPGKAPKLLIYRASTLASGVPSRFSGSGSGTEFTLTISSLQPDDFATYYCQSYYYSGSSNYNAFGGGTKVEIKR
notes: heavy chain derived; also called ANTIBODY-A H2/L1
Consider B4, for which the half-maximal effective concentration (EC50) was 4.4 nM in assay [1] and greater than 36 nM in assay [2].

B5: TfR1 ANTIBODY-A HC-H1 hIgG1 Fab′(1C)/LC-L2 hKappa (Fab, V domains shown)
VH: QSLVESGGGLVQPGGSLRLSCAASGIDFSSSGYMAWVRQAPGKGLEWVGAIYTYSSNTYYAASVKGRFTISRDDSKNSLYLQMNSLKTEDTAVYYCARGTYGYTGYTYTMGYFSLWGQGTLVTVSS
VL: ELDMTQSPSTLSASVGDRVTITCQASQNINSYLAWYQQKPGKAPKLLIYRASTLASGVPSRFSGSGSGTEFTLTISSLQPDDFATYYCQSYYYSGSSNYNAFGGGTKVEIKR
notes: also called ANTIBODY-A H1/L2
B5 gave an EC50 in assay [1] greater than 74 nM.

B6: TfR1 ANTIBODY-A HC-H0C hIgG1 Fab′(1C)/LC-L2 hKappa (Fab, V domains shown)
VH: EVQLVESGGGLVQPGGSLRLSCAASGIDFSSSGYMCWVRQAPGKGLEWVGCIYTYSSNTYYAASVKGRFTISRDDSKNSLYLQMNSLKTEDTAVYYCARGTYGYTGYTYTMGYFSLWGQGTLVTVSS
VL: ELDMTQSPSTLSASVGDRVTITCQASQNINSYLAWYQQKPGKAPKLLIYRASTLASGVPSRFSGSGSGTEFTLTISSLQPDDFATYYCQSYYYSGSSNYNAFGGGTKVEIKR
notes: also called ANTIBODY-A H0C/L2
In assay [1], B6 yielded a concentration giving a half-maximal response (EC50) of 3.6 nM.

B7: TfR1 ANTIBODY-A HC-H1C hIgG1 Fab′(1C)/LC-L2 hKappa (Fab, V domains shown)
VH: QSLVESGGGLVQPGGSLRLSCAASGIDFSSSGYMCWVRQAPGKGLEWVGCIYTYSSNTYYAASVKGRFTISRDDSKNSLYLQMNSLKTEDTAVYYCARGTYGYTGYTYTMGYFSLWGQGTLVTVSS
VL: ELDMTQSPSTLSASVGDRVTITCQASQNINSYLAWYQQKPGKAPKLLIYRASTLASGVPSRFSGSGSGTEFTLTISSLQPDDFATYYCQSYYYSGSSNYNAFGGGTKVEIKR
notes: also called ANTIBODY-A H1C/L2
As to B7, the 50% effective concentration (EC50) was 3.6 nM in assay [1] and roughly 39 nM in assay [2].

B8: TfR1 ANTIBODY-A HC-H1C hIgG1 Fab′(1C)/LC-L0 hKappa (Fab, V domains shown)
VH: QSLVESGGGLVQPGGSLRLSCAASGIDFSSSGYMCWVRQAPGKGLEWVGCIYTYSSNTYYAASVKGRFTISRDDSKNSLYLQMNSLKTEDTAVYYCARGTYGYTGYTYTMGYFSLWGQGTLVTVSS
VL: DIQMTQSPSTLSASVGDRVTITCQASQNINSYLAWYQQKPGKAPKLLIYRASSLESGVPSRFSGSGSGTEFTLTISSLQPDDFATYYCQSYYYSGSSNYNAFGGGTKVEIKR
notes: also called ANTIBODY-A H1C/L0
With B8, the EC50 in assay [1] was found to be 2.5 nM; in assay [2], 15.5 nM.

For orientation: EC50 means the midpoint of the concentration-response curve.
